Changes are numbered by the printed parent chain. In names and notes the source's numbering stands. Several values for one entry are separate records, joined by “and”; a condition that tells them apart may be missing. Identical values can stand only once.
B1: Cas1 from Escherichia coli K12 (MG1655), untagged, purified (enzyme, E. coli K12 (MG1655))
chain: MTWLPLNPIPLKDRVSMIFLQYGQIDVIDGAFVLIDKTGIRTHIPVGSVACIMLEPGTRVSHAAVRLAAQVGTLLVWVGEAGVRVYASGQPGGARSDKLLYQAKLALDEDLRLKVVRKMFELRFGEPAPARRSVEQLRGIEGSRVRATYALLAKQYGVTWNGRRYDPKDWEKGDTINQCISAATSCLYGVTEAAILAAGYAPAIGFVHTGKPLSFVYDIADIIKFDTVVPKAFEIARRNPGEPDREVRLACRDIFRSSKTLAKLIPLIEDVLAAGEIQPPAPPEDAQPVAIPLPVSLGDAGHRSS
B2: Cas1 R252E, purified (enzyme, E. coli K12 (MG1655))
chain: B1 chain with R252E
B3: Cas2 from Escherichia coli K12 (MG1655), untagged, purified (enzyme, E. coli K12 (MG1655))
chain: MSMLVVVTENVPPRLRGRLAIWLLEVRAGVYVGDVSAKIREMIWEQIAGLAEEGNVVMAWATNTETGFEFQTFGLNRRTPVDLDGLRLVSFLPV

Legend:
[1] = biological target: B3; assay: AUC
crystal structure = biological target: the molecule itself; assay: crystal structure
[2] = biological target: B3; assay: ITC
SEC = biological target: the molecule itself; assay: SEC
[3] = biological target: B1; assay: ITC

stoichiometry N [1] [Cas1 dimer per Cas2 dimer] | KD of a single run [2] | stoichiometry N [2] | Kd [3] [nM] | Binder | stoichiometry N (crystal structure) | stoichiometry N (SEC)
1 | 308 nM and 212 nM and 351 nM | ~1.5 Cas1 to Cas2 |  | B1 | 2 | 
 |  |  |  | B2 |  | 2
 |  |  | ~290 | B3 | 2 | 

— publication PMC4075942 (Nature structural & molecular biology, 2014)
